Source: patent US11160888B2, “PET tracer for imaging of neuroendocrine tumors” (priority 2011, dated 2021)

Key:
[1] = test system: somatostatin receptor; experiment: 64Cu-DOTATATE PET biodistribution by SUV quantitation in neuroendocrine tumor patients
Excerpt: (§1) Fourteen consecutively enrolled patients participated in this pilot study and underwent PET scanning with the new tracer on several time points. Patients were eligible in case of a histopathologically confirmed neuroendocrine tumor including positive immunostainings for chromogranin A and synaptophysin. They got offered study inclusion in case of referral to conventional SRI as part of routine follow-up. The maximum allowed time interval between both imaging modalities was 60 days. According to local clinical routine there was no need for interruption of biotherapy e.g. withdrawal of long- or short-time acting somatostatin analogs. However, patients must not have undergone major surgical interventions or systemic chemotherapy between conventional SRI and the PET scanning. The study group consisted of thirteen patients with gastroenteropancreatic neuroendocrine tumors (2 foregut, 6 midgut, 5 NET of unknown origin) and one patient with a known mutation in the multiple endocrine neoplasia I gene, who was diagnosed with a bronchogenic NET ten years ago. Age ranged from 40-80 years. Gender distribution: four women, ten men. Ten of the tumors were active functioning causing classical carcinoid syndromes mainly due to hepatic tumor load. One patient had shown clinical and biochemical manifestations of a Zollinger-Ellison syndrome at time of diagnosis. Twelve patients were in advanced disease state—TNM stage IV according to most recently both UICC/AJCC and ENETS classifications. Two patients had undergone respectively R0- and R1-resections, both without detectable disease so far. Patient recruiting and follow-up was carried out at the Department of Abdominal Surgery C. SRI was performed at the Department of Clinical Physiology, Nuclear Medicine and PET. Both departments are part of the Neuroendocrine Tumor Center of Excellence, Rigshospitalet, University of Copenhagen, Denmark. All patients had given written informed consent prior to inclusion. The study was approved by the Danish Medicines Agency and the Regional Research Ethics Committee.
(§2) PET-CT images were acquired on an integrated PET-CT Siemens Biograph True X, multi-slice. […] Imaging was performed 1h, 3h and 24h after injection.
(§3) Planar whole-body scans/SPECT-CT and PET-CT images were evaluated by two separate teams consisting of both a nuclear medicine physician and a radiologist. Both teams were briefed about the patients past medical history. When abnormal findings only detected on co-registered CT had led the attention to a specific anatomical site, this particular region was revaluated using the molecular imaging data. Judged visually, there also had to be clearly detectable lesion to be accounted as true SRI positive as this was the main focus of interest of the present study. However, all lesions were documented, whether identified on CT images or by SRI. Findings were reported according to their respective anatomical site and if possible absolute numbers of lesions per organ system. […] While still remaining blinded to the opposite SRI results, this disparity was tried to balance by additionally providing the team evaluating ^111In-pentreotide SPECT-CT scans with the findings from contrast enhanced diagnostic CT. Interpretation of conventional SRI was performed based on the knowledge of normal tissue accumulation of ^111In-pentreotide. Interpretation of the findings from the new PET method was carried out in a similar manner being aware of possible differences regarding residence times and excretion patterns of the new tracer. Confirmation of the pointed-out lesions was sought by routine follow-up including CT, MRI, conventional SRI and biopsy if possible. Newly detected lesions on co-registered CT imaging were accepted for confirmations as well. Semi-quantitative analysis of tissue radioactivity concentrations was performed by drawing volumes of interests (VOI) around detected lesions and encompassing normal tissues with appreciable tracer uptake on fused PET-CT images.

[2] = as above; conditions: both, human, pituitary, adrenals, spleen, iv, 200 MBq, total radioactivity
Excerpt: as §1, §2, §3

[3] = in vivo
[4] = test system: neuroendocrine tumor; experiment: Comparative lesion detection, 64Cu-DOTATATE PET versus 111In-DTPA-octreotide SPECT; type: in vivo, human
Excerpt: as §1, §2
^111In-pentreotide was intravenously applied with a target dose of 200 MBq. The scans consisted of whole body planar scintigraphy and SPECT-CT: Planar images were acquired at 24 h (anterior and posterior whole-body scan, scan speed 5 cm/min, 512*1.024 matrix) and at 48 h (15 min static planar image (256*256 matrix) of the abdomen using a large field of view medium-energy collimator (Precedence 16-slice scanner, Philips Healthcare; VG Hawkeye, GE Healthcare). SPECT (20 sec/step, 128 angles, 128*128 matrix) over the abdomen was obtained at 24 or 48 h, and included also the chest if a pathological focus was suspected from the whole body scan. A low-dose CT was used as anatomical guide and for attenuation correction. SPECT and CT were fused and reviewed on dedicated workstations (EBW, Philips Healthcare; eNTEGRA, GE Healthcare).
Planar whole-body scans/SPECT-CT and PET-CT images were evaluated by two separate teams consisting of both a nuclear medicine physician and a radiologist. Both teams were briefed about the patients past medical history. When abnormal findings only detected on co-registered CT had led the attention to a specific anatomical site, this particular region was revaluated using the molecular imaging data. Judged visually, there also had to be clearly detectable lesion to be accounted as true SRI positive as this was the main focus of interest of the present study. However, all lesions were documented, whether identified on CT images or by SRI. Findings were reported according to their respective anatomical site and if possible absolute numbers of lesions per organ system.

[5] = human, in vivo
Excerpt: No additional radiochemical purification step was required. […] The mean administered activity was 207 6 10 MBq (range, 193-232 MBq). […] This side effect was probably due to the somatostatin analog contained in the tracer.

With `CC(O)[C@H](NC(=O)[C@@H]1CSSC[C@H](NC(=O)[C@@H](Cc2ccccc2)NC(=O)CN2CCN(CC(=O)O)CCN(CC(=O)O)CCN(CC(=O)O)CC2)C(=O)N[C@@H](Cc2ccc(O)cc2)C(=O)N[C@H](Cc2c[nH]c3ccccc23)C(=O)N[C@@H](CCCCN)C(=O)N[C@@H](C(C)O)C(=O)N1)C(=O)O` (stereo partly shown) [64Cu-DOTATATE, metal not drawn] the “activity distribution on late scan” value ([1]; 24 h after injection) was “activity washout from most organs and lesions”, the SUVmax range ([1]; bone lesions, 1 h) was 30-117 and the SUVmax range ([1]; bone lesions, 3 h) was 27-111. For the same compound, the “tracer accumulation category (high, moderate, faint)” value (shortened to “tracer accumulation category”) ([1]; liver and spleen) was “Moderate to high”, the SUVmax range ([1]; liver lesions, 1 h) was 20-81 and the SUVmax range ([1]; liver lesions, 3 h) was 26-81. The SUVmax range ([1]; lymph nodes (lesions), 1 h) was 9-110, the SUVmax range ([1]; lymph nodes (lesions), 3 h) was 9-115 and the “tracer accumulation category” value ([1]; pituitary, adrenal glands, kidneys, renal pelvis, urinary bladder) was “High”. For the same compound, the “tracer accumulation category” value ([1]; salivary glands, in 12 of 14 patients) was “faint to moderate”, the “tracer accumulation category” value ([1]; thyroid gland, in 2 patients) was “moderate” and the SUV [2] was no more than 20 SUV. For the same compound, the absorbed dose [3] was 0.19 mGy/MBq, the estimated effective dose [3] was 6.3 mSv and the “image quality compared with SPECT with 111In-DTPA-octreotide” value ([4]; PET) was “considerably better image quality”. The “number of lymph node lesions revealed” value ([4]; all 14 patients) was 98, the “Number and localization of lesions detected” value (“Number and localization” for short) ([4]; patient no. 2) was “Negative” and the “Number and localization” value ([4]; patient no. 4) was “Negative”. The “Number and localization” value ([4]; patient no. 5) was “Lymph nodes (>30)”, the “Number and localization” value ([4]; patient no. 7) was “Pancreas (1), liver (>10) bones (>10)” and the “Number and localization” value ([4]; patient no. 10) was “Lymph nodes (10)”. The “Number and localization” value ([4]; patient no. 11) was “Liver (>10)”, the “adverse or clinically detectable pharmacologic effects” value [5] was “no adverse or clinically detectable pharmacologic effects” and the “changes in vital signs” value [5] was “No significant changes”. For the same compound, the “subjects who experienced self-limiting nausea” value [5] was 4 subjects.
